Results on six sequences are retold here after the supplement of paper PMC11196671.

± gives the standard deviation of the averaged measurements.

This series can be described thus: terephthalic acid (TPA) released, HPLC; higher = more TPA released; extreme values may be limits of the assay. Conditions: 24 h. As to the method:
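Purified PET hydrolases, 2.5 ug enzyme on 3.5 mg amorphous PET film (aFilm) or crystalline PET powder (cryPow) in 0.5 mL of 50 mM buffer (NaCitrate pH 4.5/5.5, NaPhosphate 6.5/7.5, glycine 8.5/9.5) at 60 or 70 C with shaking for 24 h. Total aromatic product by UV-Vis (260/280 nm, blank-subtracted, normalised per mg enzyme) and individual TPA, MHET, BHET concentrations by UHPLC-DAD at 240 nm; duplicate reactions.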

The mark [1] stands for this setting: PET substrate: aFilm, 60 °C, pH 4.5.
The mark [2] stands for this setting: PET substrate: aFilm, 60 °C, pH 5.5.
The mark [3] stands for this setting: PET substrate: aFilm, 60 °C, pH 6.5.
The mark [4] stands for this setting: PET substrate: aFilm, 60 °C, pH 7.5.
[5] abbreviates: PET substrate: aFilm, 60 °C, pH 8.5.
[6] abbreviates: PET substrate: aFilm, 60 °C, pH 9.5.
The mark [7] stands for this setting: PET substrate: aFilm, 70 °C, pH 4.5.
Setting [8] is: PET substrate: aFilm, 70 °C, pH 5.5.
The mark [9] stands for this setting: PET substrate: aFilm, 70 °C, pH 6.5.
[10] abbreviates: PET substrate: aFilm, 70 °C, pH 7.5.
Setting [11] is: PET substrate: aFilm, 70 °C, pH 8.5.
Where [12] appears, read: PET substrate: aFilm, 70 °C, pH 9.5.
The mark [13] stands for this setting: PET substrate: cryPow, 60 °C, pH 4.5.
Setting [14] is: PET substrate: cryPow, 60 °C, pH 5.5.
[15] abbreviates: PET substrate: cryPow, 60 °C, pH 6.5.
[16] abbreviates: PET substrate: cryPow, 60 °C, pH 7.5.
[17] abbreviates: PET substrate: cryPow, 60 °C, pH 8.5.
The mark [18] stands for this setting: PET substrate: cryPow, 60 °C, pH 9.5.
[19] abbreviates: PET substrate: cryPow, 70 °C, pH 4.5.
Where [20] appears, read: PET substrate: cryPow, 70 °C, pH 5.5.
Where [21] appears, read: PET substrate: cryPow, 70 °C, pH 6.5.
Setting [22] is: PET substrate: cryPow, 70 °C, pH 7.5.
Where [23] appears, read: PET substrate: cryPow, 70 °C, pH 8.5.
Setting [24] is: PET substrate: cryPow, 70 °C, pH 9.5.

As for “SNPYQRGPNPTRSALTADGPFSVATYTVSRLSVSGFGGGVIYYPTGTSLTFGGIAMSPGYTADASSLAWLGRRLASHGFVVLVINTNSRFDGPDSRASQLSAALNYLRTSSPSAVRARLDANRLAVAGHSMGGGGTLRIAEQNPSLKAAVPLTPWHTDKTFNTSVPVLIVGAEADTVAPVSQYAIPFYQNLPSTTPKVYVELCNASHIAPNSDNAAISVYTISWMKLWVDNDTRYRQFLCNVNDPALCDFRTNNRHCQ [LCC-A2]”, the terephthalic acid is 0.195 ± 0.029 mM under setting [1]; 0.792 ± 0.039 mM under setting [2]; 1.34 ± 0.054 mM under setting [3]; 5.52 ± 0.61 mM under setting [4]; 0.776 ± 0.27 mM under setting [5]; 2.661 ± 0.012 mM under setting [6]. In addition, the terephthalic acid amounted to 0.0095 ± 0.0046 mM under setting [7]; 0.455 ± 0.04 mM under setting [8]; 0.83 ± 0.096 mM under setting [9]; 5.42 ± 0.41 mM under setting [10]; 0.643 ± 0.15 mM under setting [11]; 2.9 ± 0.24 mM under setting [12]. Further, the terephthalic acid is, setting by setting: under setting [13], 0.0633 ± 0.017 mM; under setting [14], 0.132 ± 0.011 mM; under setting [15], 0.232 ± 0.076 mM; under setting [16], 0.39 ± 0.062 mM; under setting [17], 0.174 ± 0.046 mM; under setting [18], 0.789 ± 0.19 mM. Further, the terephthalic acid is, setting by setting: under setting [19], 0.0184 ± 0.0046 mM; under setting [20], 0.0932 ± 0.015 mM; under setting [21], 0.209 ± 0.045 mM; under setting [22], 0.639 ± 0.023 mM; under setting [23], 0.157 ± 0.0095 mM; under setting [24], 0.987 ± 0.046 mM.

For the sequence “ANPYERGPNPTDALLEARSGPFSVSEENVSRLSASGFGGGTIYYPRENNTYGAVAISPGYTGTEASIAWLGERIASHGFVVITIDTITTLDQPDSRAEQLNAALNHMINRASSTVRSRIDSSRLAVMGHSMGGGGSLRLASQRPDLKAAIPLTPWHLNKNWSSVTVPTLIIGADLDTIAPVATHAKPFYNSLPSSISKAYLELDGATHFAPNIPNKIIGKYSVAWLKRFVDNDTRYTQFLCPGPRDGLFGEVEEYRSTCPF [TfCut2]”, the terephthalic acid under setting [1] was 0 mM; the terephthalic acid under setting [2] worked out at 0.0433 ± 0.016 mM; the terephthalic acid under setting [3] was 0.0508 ± 0.0026 mM; the terephthalic acid under setting [4] was determined as 0.186 ± 0.065 mM; the terephthalic acid under setting [5] came to 0.0862 ± 0.0028 mM; the terephthalic acid under setting [6] was 0.454 ± 0.0053 mM. For the same sequence, the terephthalic acid was 0 mM under setting [7]; 0 mM under setting [8]; 0 mM under setting [9]; 0.00319 ± 0.0045 mM under setting [10]; 0.00941 ± 0.00042 mM under setting [11]; 0.03467 ± 8.1e-05 mM under setting [12]. The terephthalic acid reads like this: under setting [13], 0 mM; under setting [14], 0.0031 ± 0.0044 mM; under setting [15], 0.00386 ± 0.0055 mM; under setting [16], 0.0408 ± 0.031 mM; under setting [17], 0.0159 ± 0.004 mM; under setting [18], 0.0959 ± 0.083 mM. Moreover, the terephthalic acid is, setting by setting: under setting [19], 0 mM; under setting [20], 0 mM; under setting [21], 0 mM; under setting [22], 0 mM; under setting [23], 0 mM; under setting [24], 0.0139 ± 0.0022 mM.

Regarding “QDNPYERGPDPTEDSIEAIRGPFSVATERVSSFASGFGGGTIYYPRETDEGTFGAVAVAPGFTASQGSMSWYGERVASHGFIVFTIDTNTRLDAPGQRGRQLLAALDYLVERSDRKVRERLDPNRLAVMGHSMGGGGSLEATVMRPSLKASIPLTPWHLDKTWGQVQVPTFIIGAELDTIAPVSTHAKPFYESLPSSLPKAYMELCGATHFAPNIPNTTIAKYVISWLKRFVDEDTRYSQFLCPNPTDRAICEYRSTCPY [Cut190*SS]”, the terephthalic acid turned out to be 0 mM under setting [1]; 0 mM under setting [2]; 0.00808 ± 0.0024 mM under setting [3]; 0.0544 ± 0.007 mM under setting [4]; 0.0241 ± 0.0042 mM under setting [5]; 0.319 ± 0.037 mM under setting [6]. The terephthalic acid reads like this: under setting [7], 0 mM; under setting [8], 0 mM; under setting [9], 0 mM; under setting [10], 0.142 ± 0.013 mM; under setting [11], 0 mM; under setting [12], 0.477 ± 0.06 mM. Further, the terephthalic acid runs as follows: under setting [13], 0 mM; under setting [14], 0.0115 ± 0.0016 mM; under setting [15], 0.016 ± 0.0019 mM; under setting [16], 0.0676 ± 0.012 mM; under setting [17], 0.04 ± 0.012 mM; under setting [18], 0.302 ± 0.11 mM. Besides, the terephthalic acid under setting [19] amounted to 0 mM; the terephthalic acid under setting [20] came out at 0 mM; the terephthalic acid under setting [21] was 0.00353 ± 0.005 mM; the terephthalic acid under setting [22] turned out to be 0.0546 ± 0.0012 mM; the terephthalic acid under setting [23] stood at 0.01301 ± 0.00011 mM; the terephthalic acid under setting [24] stood at 0.0846 ± 0.029 mM.

Take “ADNPYQRGPDPTNASIEAATGPFAVGTQPIVGASGFGGGQIYYPTDTSQTYGAVVIVPGFISVWAQLAWLGPRLASQGFVVIGIETSTITDLPDPRGDQALAALDWATTRSPVRSRIDRTRLAAAGWSMGGGGLRRAACQRPSLKAIVGMAPWNTEKNWSCVTVPTLFFGGSSDAVASPNDHAKPFYNSITRAEKDYIELCNADHFFPTSANTTMAKYFISWLKRWVDNDTRYTQFLCPGPSTGLFAPVCASMNTCPF [CaPETaseM9]”: the terephthalic acid is, setting by setting: under setting [1], 0.00338 ± 0.0048 mM; under setting [2], 0.0407 ± 0.023 mM; under setting [3], 0.0535 ± 0.013 mM; under setting [4], 0.165 ± 0.0089 mM; under setting [5], 0.0537 ± 0.0038 mM; under setting [6], 0.297 ± 0.045 mM. The terephthalic acid under setting [7] came to 0 mM; the terephthalic acid under setting [8] came to 0 mM; the terephthalic acid under setting [9] came to 0 mM; the terephthalic acid under setting [10] was determined as 0 mM; the terephthalic acid under setting [11] is 0 mM; the terephthalic acid under setting [12] turned out to be 0.00887 ± 0.0016 mM. Further, the terephthalic acid under setting [13] worked out at 0.0214 ± 0.0012 mM; the terephthalic acid under setting [14] turned out to be 0.0432 ± 0.00074 mM; the terephthalic acid under setting [15] was determined as 0.0325 ± 0.011 mM; the terephthalic acid under setting [16] was determined as 0.0946 ± 0.028 mM; the terephthalic acid under setting [17] was found to be 0.0338 ± 0.0062 mM; the terephthalic acid under setting [18] is 0.336 ± 0.11 mM. The terephthalic acid under setting [19] stood at 0 mM; the terephthalic acid under setting [20] came out at 0.0031 ± 0.0044 mM; the terephthalic acid under setting [21] is 0.0109 ± 0.0021 mM; the terephthalic acid under setting [22] came out at 0.0454 ± 0.008 mM; the terephthalic acid under setting [23] is 0.0207 ± 0.0003 mM; the terephthalic acid under setting [24] stood at 0.0926 ± 0.054 mM.

As for “SNPYQRGPNPTRSALTADGPFSVRTYTISRLSVSGFGGGVIYYPTGTSLTFGGIAMSPGYTADASSLAWLGRRLASHGFVVLVINTNSRFDGPDSRASQLSAALNYLRTSSPSAVRARLDANRLAVAGHSMGGGGTLRIAEQNPSLKAAVPLTPWHTDKTFNTSVPVLIVGAEADTVAPVSQHAIPFYQNLPSTTPKVYVELCNASHIAPNSPNAAISVYTISWMKLWVDNDTRYRQFLCNVNDPALCDFRTNNRHCQ [LCC-ICCG RIP]”, the terephthalic acid runs as follows: under setting [1], 0.0858 ± 0.039 mM; under setting [2], 0.202 ± 0.018 mM; under setting [3], 0.423 ± 0.091 mM; under setting [4], 1.96 ± 0.034 mM; under setting [5], 0.346 ± 0.022 mM; under setting [6], 1.27 ± 0.21 mM. In addition, the terephthalic acid runs as follows: under setting [7], 0.00741 ± 0.011 mM; under setting [8], 0.255 ± 0.036 mM; under setting [9], 0.361 ± 0.0096 mM; under setting [10], 1.63 ± 0.096 mM; under setting [11], 0.2235 ± 0.00086 mM; under setting [12], 1.66 ± 0.21 mM. Also, the terephthalic acid is, setting by setting: under setting [13], 0.0388 ± 0.004 mM; under setting [14], 0.0956 ± 0.00098 mM; under setting [15], 0.113 ± 0.0086 mM; under setting [16], 0.147 ± 0.015 mM; under setting [17], 0.121 ± 0.061 mM; under setting [18], 0.307 ± 0.072 mM. The terephthalic acid was 0.00368 ± 0.0052 mM under setting [19]; 0.057 ± 0.0034 mM under setting [20]; 0.0917 ± 0.0036 mM under setting [21]; 0.322 ± 0.049 mM under setting [22]; 0.118 ± 0.015 mM under setting [23]; 0.4635 ± 0.0039 mM under setting [24].

For “SNPYQRGPNPTRSALTATGPFSVATYTVSRLLVSGFGGGVIYYPTGTSLTFGGIAMSPGYTADASSLAWLGRRLASHGFVVLVINTNSRFDGPDSRARQLSAALNYLRTSSPSAVRARLDANRLAVAGHSMGGGGTLRIAEQNPSLKAAVPLTPWHPDKTFNTSVPVLIVGAQADTVAPVSQHAIPFYQNLPSTTPKVYVELCNASHIAPNSPNAAISVYTISWMKLWVDNDTRYRQFLCNVNDPALCDFRTNNRHCQ [LCC-ICCG I6M]”, the terephthalic acid was 0.104 ± 0.016 mM under setting [1]; 0.39 ± 0.21 mM under setting [2]; 0.499 ± 0.059 mM under setting [3]; 2.85 ± 0.34 mM under setting [4]; 0.541 ± 0.045 mM under setting [5]; 1.37 ± 0.38 mM under setting [6]. Moreover, the terephthalic acid is 0 mM under setting [7]; 0.275 ± 0.045 mM under setting [8]; 0.246 ± 0.094 mM under setting [9]; 1.37 ± 0.13 mM under setting [10]; 0.209 ± 0.016 mM under setting [11]; 1.33 ± 0.17 mM under setting [12]. Further, the terephthalic acid reads like this: under setting [13], 0.0328 ± 0.0013 mM; under setting [14], 0.102 ± 0.015 mM; under setting [15], 0.105 ± 0.0069 mM; under setting [16], 0.116 ± 0.015 mM; under setting [17], 0.0874 ± 0.032 mM; under setting [18], 0.263 ± 0.12 mM. The terephthalic acid was 0 mM under setting [19]; 0.0482 ± 0.0048 mM under setting [20]; 0.0691 ± 0.0087 mM under setting [21]; 0.288 ± 0.082 mM under setting [22]; 0.1 ± 0.051 mM under setting [23]; 0.25 ± 0.023 mM under setting [24].
